# Data from EP2287285A2 (UAB RESEARCH FOUNDATION, dated 2011).
# T1: CD95/hIgG1 (soluble form of human Fas) (human, UniProt P25445 26-173, limits assumed)
# T1 construct: Provided by Amgen; also called Fas (CD95)
# T1 sequence (looked up): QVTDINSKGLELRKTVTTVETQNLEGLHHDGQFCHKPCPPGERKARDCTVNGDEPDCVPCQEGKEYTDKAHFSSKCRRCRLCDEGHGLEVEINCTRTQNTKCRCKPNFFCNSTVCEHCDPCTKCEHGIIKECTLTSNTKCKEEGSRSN
# T2: soluble TNFRI (soluble form of human TNFR1) (human, UniProt P19438 41-201, limits assumed)
# T2 construct: Provided by Amgen; an Fc part is therefore uncertain and not written; also called TNF receptor I
# T2 sequence (looked up): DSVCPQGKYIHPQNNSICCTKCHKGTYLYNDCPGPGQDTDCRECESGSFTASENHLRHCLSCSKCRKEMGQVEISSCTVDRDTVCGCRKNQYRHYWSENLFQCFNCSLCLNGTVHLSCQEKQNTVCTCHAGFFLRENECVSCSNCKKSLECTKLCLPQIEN
# T3: TRAIL-R4 (DcR-2)/hIgG1 fusion protein (human, UniProt Q9UBN6 56-211, limits assumed)
# T3 sequence (looked up): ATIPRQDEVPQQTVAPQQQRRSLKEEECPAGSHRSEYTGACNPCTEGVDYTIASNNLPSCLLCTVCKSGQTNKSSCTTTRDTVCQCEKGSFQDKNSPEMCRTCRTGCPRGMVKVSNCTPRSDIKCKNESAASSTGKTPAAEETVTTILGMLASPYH
# T4: TRAIL-R3 (DcR-1)/hIgG1 fusion protein (human, UniProt O14798 26-236, limits assumed)
# T4 sequence (looked up): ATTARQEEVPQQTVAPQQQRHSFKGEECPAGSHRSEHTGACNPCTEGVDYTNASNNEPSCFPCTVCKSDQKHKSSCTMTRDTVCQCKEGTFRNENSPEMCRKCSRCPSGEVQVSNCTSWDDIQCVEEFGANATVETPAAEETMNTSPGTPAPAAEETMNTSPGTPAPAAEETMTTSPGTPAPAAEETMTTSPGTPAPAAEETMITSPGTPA
# B1: TRA-8 monoclonal anti-human DR5 antibody (mouse-mouse hybridoma TRA-8, ATCC PTA-1428) (antibody, mouse IgG1, kappa, V domains shown)
# VH: EVMLVESGGGLVKPGGSLKLSCAASGFTFSSYVMSWVRQTPEKRLEWVATISSGGSYTYYPDSVKGRFTISRDNAKNTLYLQMSSLRSEDTAMYYCARRGDSMITTDYWGQGTTLTVSS
# VL: DIVMTQSHKFMSTSVGDRVSITCKASQDVGTAVAWYQQKPGQSPKLLIYWASTRHTGVPDRFTGSGSGTDFTLTISNVQSEDLADYFCQQYSSYRTFGGGTKLEIKR
# notes: also called anti-DR5 antibody (clone: TRA-8)
# B2: soluble recombinant human TRAIL (Alexis): extracellular domain of human TRAIL (aa residues 95 to 281) fused at the N-terminus to a FLAG-tag and an 8 amino acid … (ligand, UniProt P50591 95-281, looked up)
# chain: TSEETISTVQEKQQNISPLVRERGPQRVAAHITGTRGRSNTLSSPNSKNEKALGRKINSWESSRSGHSFLSNLHLRNGELVIHEKGFYYIYSQTYFRFQEEIKENTKNDKQMVQYIYKYTSYPDPILLMKSARNSCWSKDAEYGLYSIYQGGIFELKENDRIFVSVTNEHLIDMDHEASFFGAFLVG
# notes: range 95-281; Bought reagent; also called TRAIL-FLAG; soluble TRAIL; not shown: FLAG tag; 8 amino acid linker peptide
# What was measured:
# [1] = biological target: T5, human DR5/hIgG1 fusion protein (immunogen); residues 1-180 of the extracellular portion of DR5 fused to the … (human, UniProt O14763 56-180); test: ELISA on coated DR5-Ig, one-site binding model, non-linear regression
# T5 construct: range 1-180; also called DR5-IgG; DR5-IgG1
# [2] = biological target: T1, CD95/hIgG1 (soluble form of human Fas); test: Western blot, 0.5 µg of each protein
# [3] = biological target: T2, soluble TNFRI (soluble form of human …); test: Western blot, 0.5 µg of each protein
# [4] = biological target: T3, TRAIL-R4 (DcR-2)/hIgG1 fusion protein; test: Western blot, 0.5 µg of each protein
# [5] = biological target: T4, TRAIL-R3 (DcR-1)/hIgG1 fusion protein; test: Western blot, 0.5 µg of each protein
# [6] = biological target: T6, human DR5, full length, on the cell surface (Cos-7 cells transfected with full-length human DR5 cDNA); human … (human, UniProt O14763 56-440); test: radioisotope labeled TRA-8 on a breast cancer cell line in vitro
# T6 construct: whole, on cells; also called cell surface DR5; human DR5 antigen
# [7] = biological target: T7, DR4/hIgG1 (TRAIL-R1) fusion protein (human, UniProt O00220 24-239, limits assumed); test: ELISA on plates coated with 2 µg/ml DR4-Ig (Fig. 1b, middle panel)
# T7 construct: also called DR4-Ig
# [8] = biological target: T8, murine DR5/hIgG1 fusion protein (murine; human, UniProt Q9QZM4 53-180, limits assumed); test: ELISA, absorbance 450 nm/650 nm (Fig. 1a, column 8 of lower panel)
# T8 construct: also called murine homologue of DR5
# [9] = biological target: T9, human DR4, full length, on the cell surface (Cos-7 cells transfected with full-length DR4 cDNA); human cell … (human, UniProt O00220 24-468); test: flow cytometry of transfected Cos-7 cells (Fig. 1c)
# T9 construct: whole, on cells; also called cell surface DR4
# [10] = biological target: T7, DR4/hIgG1 (TRAIL-R1) fusion protein; test: ELISA on plates coated with 2 µg/ml DR4-Ig, HRP anti-Flag detection
Binder,Kd [1] [nM],binding result [2],binding result [3],binding result [4],binding result [5],Kd [6] [nM],binding result [7],binding result [8],binding result [9],binding result [10]
B1,3,no binding (tested: 1 µg/ml),no binding (tested: 1 µg/ml),no binding (tested: 1 µg/ml),no binding (tested: 1 µg/ml),3,no binding,no binding,no binding,
B2,,,,,,,,,,binds
